Results taken from article PMC4699573 (Molecular bioSystems, 2016).

Target: T1, EcoR124I (Escherichia coli, UniProt P10484+P10485+P10486)
T1 sequence (P10485 1-404): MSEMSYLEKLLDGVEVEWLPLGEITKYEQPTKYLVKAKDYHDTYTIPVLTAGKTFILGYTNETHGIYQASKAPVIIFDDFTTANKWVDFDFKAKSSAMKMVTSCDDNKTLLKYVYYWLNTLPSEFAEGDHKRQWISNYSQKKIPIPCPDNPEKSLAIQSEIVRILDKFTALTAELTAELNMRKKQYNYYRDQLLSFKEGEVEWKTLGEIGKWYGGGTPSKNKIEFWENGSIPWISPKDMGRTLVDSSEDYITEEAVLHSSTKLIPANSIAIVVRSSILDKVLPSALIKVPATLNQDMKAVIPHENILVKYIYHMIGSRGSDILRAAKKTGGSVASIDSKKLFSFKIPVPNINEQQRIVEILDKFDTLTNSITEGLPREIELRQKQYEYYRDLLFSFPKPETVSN
T1 sequence (P10484 1-520): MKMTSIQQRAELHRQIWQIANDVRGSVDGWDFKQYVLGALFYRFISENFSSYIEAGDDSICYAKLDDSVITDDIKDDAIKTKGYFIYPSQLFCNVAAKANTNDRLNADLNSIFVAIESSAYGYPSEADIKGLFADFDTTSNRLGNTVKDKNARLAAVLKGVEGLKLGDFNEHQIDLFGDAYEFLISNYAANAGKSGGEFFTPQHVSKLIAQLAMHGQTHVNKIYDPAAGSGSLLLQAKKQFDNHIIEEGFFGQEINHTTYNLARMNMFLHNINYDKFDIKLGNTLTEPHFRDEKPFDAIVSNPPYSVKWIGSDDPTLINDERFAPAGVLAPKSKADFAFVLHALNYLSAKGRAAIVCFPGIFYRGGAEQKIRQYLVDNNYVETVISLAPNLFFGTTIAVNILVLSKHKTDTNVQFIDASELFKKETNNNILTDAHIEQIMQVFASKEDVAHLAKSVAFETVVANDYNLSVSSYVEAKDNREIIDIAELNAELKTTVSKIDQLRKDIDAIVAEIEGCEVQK
T1 sequence (P10486 1-1038): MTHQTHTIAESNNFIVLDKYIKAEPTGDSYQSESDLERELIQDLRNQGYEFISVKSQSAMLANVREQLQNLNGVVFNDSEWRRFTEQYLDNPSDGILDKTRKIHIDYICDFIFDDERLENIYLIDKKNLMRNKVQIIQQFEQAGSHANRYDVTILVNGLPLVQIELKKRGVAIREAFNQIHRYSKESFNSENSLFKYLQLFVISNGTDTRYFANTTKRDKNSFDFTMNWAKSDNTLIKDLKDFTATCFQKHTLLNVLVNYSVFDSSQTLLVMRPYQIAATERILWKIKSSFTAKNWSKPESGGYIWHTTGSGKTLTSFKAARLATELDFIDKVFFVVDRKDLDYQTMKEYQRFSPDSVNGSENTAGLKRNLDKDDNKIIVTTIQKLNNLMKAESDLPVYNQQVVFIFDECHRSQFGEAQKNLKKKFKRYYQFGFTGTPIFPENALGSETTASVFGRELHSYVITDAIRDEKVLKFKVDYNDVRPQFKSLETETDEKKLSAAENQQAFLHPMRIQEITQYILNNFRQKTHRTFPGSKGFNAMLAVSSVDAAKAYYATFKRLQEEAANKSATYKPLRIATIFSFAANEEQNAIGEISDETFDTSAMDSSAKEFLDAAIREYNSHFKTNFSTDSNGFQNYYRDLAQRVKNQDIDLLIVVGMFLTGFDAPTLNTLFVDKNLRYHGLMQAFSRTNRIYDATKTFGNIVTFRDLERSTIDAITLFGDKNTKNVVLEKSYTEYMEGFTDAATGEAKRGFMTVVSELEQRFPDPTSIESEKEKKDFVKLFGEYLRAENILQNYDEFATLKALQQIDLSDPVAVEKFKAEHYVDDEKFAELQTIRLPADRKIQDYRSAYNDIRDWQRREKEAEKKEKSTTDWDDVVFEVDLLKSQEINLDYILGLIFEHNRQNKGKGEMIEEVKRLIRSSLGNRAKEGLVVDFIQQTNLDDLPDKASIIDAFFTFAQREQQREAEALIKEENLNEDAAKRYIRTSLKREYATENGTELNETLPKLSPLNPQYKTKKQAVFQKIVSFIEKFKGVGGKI
Test: Coupled spectrophotometric ATPase assay
Assay type: biochemical
Conditions: EcoR124I pre-incubated with protein, reaction initiated by scDNA; Figure S1

“Ocr: anti-restriction protein of bacteriophage T7 (overcome classical restriction), mimics B-DNA” was tested, and the “Concentration at which ATP hydrolysis of EcoR124I is retarded / abolished” value was 100 nM.
